± gives the standard deviation of the averaged measurements.
Test system: ATP
Assay: switch fluorescence ratio, 500 uM ATP over buffer (Cy3 cluster intensity, sum of 5 cycles each) (fold (ratio)); higher = stronger signal-on switching upon ATP binding; sequences stand for … in TCGTCGGCAGCGTCAGATGTGTATAAGAGACAGTTTTTTTTTTTTTTTTTTTTTTTTT…TC
Conditions: aptamer strand: ATP DNA aptamer (quencher-CACCTGGGGGAGTATTGCGGAGGAAGG + anchor), 100 nM annealed; ATP concentration: 500 uM
How it was run: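 Exposure to 500 uM ATP lasted 15 min at 22 °C before imaging, and a selection-buffer image was taken beforehand, for Cy3-labelled switching-strand clusters on a modified Illumina MiSeq flow-cell annealed to 100 nM quencher-labelled ATP aptamer. Five buffer/ATP cycles were run with NaOH stripping and re-annealing between them. The fluorescence ratio per cluster is summed target-cycle over summed buffer-cycle Cy3 intensity, averaged per switch-domain sequence. Clusters outside 100-1000 RFU were excluded.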

| Sequence | switch fluorescence ratio |
| --- | --- |
| GTGTTAGCTA | 1 ± 0.011 |
| GTGTTAGGCT | 0.978 ± 0.012 |
| GTGTTAGGTT | 1.01 ± 0.017 |
| GTGTTCAAGG | 0.971 ± 0.015 |
| GTGTTCATCG | 0.973 ± 0.037 |
| GTGTTCGGGC | 1.02 ± 0.011 |
| GTGTTCTAAA | 1.03 ± 0.041 |
| GTGTTGGTAG | 0.984 ± 0.018 |
| GTGTTGGTTG | 0.982 ± 0.038 |
| GTGTTGGTTT | 0.986 ± 0.024 |
| GTGTTTAAAG | 0.98 ± 0.02 |
| GTGTTTAAGC | 0.978 ± 0.012 |
| GTGTTTATAG | 0.993 ± 0.018 |
| GTGTTTGGGA | 0.997 ± 0.033 |
| GTGTTTGGGG | 0.977 ± 0.023 |
| GTGTTTTCTT | 1.006 ± 0.0025 |
| GTTAAAAAGA | 1.08 ± 0.22 |
| GTTAAAAGGT | 1 ± 0.039 |
| GTTAAAAGTG | 0.987 ± 0.03 |
| GTTAAAATTT | 1.001 ± 0.0014 |
| GTTAAATCTT | 1 ± 0.042 |
| GTTAAGAAAG | 1.01 ± 0.012 |

| Sequence | switch fluorescence ratio |
| --- | --- |
| GTTAAGGATT | 1.03 ± 0.085 |
| GTTAAGGGGT | 1.007 ± 0.0026 |
| GTTAATGTCC | 0.994 ± 0.014 |
| GTTAATTACA | 1.026 ± 0.0096 |
| GTTACAGGTC | 1.006 ± 0.0019 |
| GTTACATTAA | 1.01 ± 0.021 |
| GTTACCCGA | 0.98 ± 0.016 |
| GTTACGGGGA | 1.02 ± 0.051 |
| GTTACTTGCC | 0.992 ± 0.039 |
| GTTACTTGCT | 1.01 ± 0.059 |
| GTTACTTTGT | 0.992 ± 0.0075 |
| GTTAGCACCC | 1.04 ± 0.04 |
| GTTAGCCTTG | 1 ± 0.039 |
| GTTAGGGCGG | 0.998 ± 0.042 |
| GTTAGGGTAG | 0.992 ± 0.025 |
| GTTAGGTAGC | 0.997 ± 0.011 |
| GTTAGTATTG | 0.998 ± 0.021 |
| GTTAGTCTGA | 1.01 ± 0.043 |
| GTTAGTGGCA | 0.984 ± 0.012 |
| GTTAGTGTGC | 0.984 ± 0.013 |
| GTTAGTTGGT | 0.993 ± 0.017 |
| GTTAGTTGTT | 0.987 ± 0.013 |

| Sequence | switch fluorescence ratio |
| --- | --- |
| GTTATAACCG | 0.993 ± 0.024 |
| GTTATAAGTC | 1.01 ± 0.026 |
| GTTATACATT | 1.02 ± 0.011 |
| GTTATACGAA | 1.028 ± 0.0085 |
| GTTATATAAG | 0.984 ± 0.011 |
| GTTATATATG | 1.015 ± 0.0029 |
| GTTATATGTT | 1 ± 0.03 |
| GTTATATTTG | 0.997 ± 0.031 |
| GTTATCCGGG | 1.01 ± 0.036 |
| GTTATCGGAC | 1.01 ± 0.015 |
| GTTATCGTGC | 0.992 ± 0.059 |
| GTTATGCCGG | 0.97 ± 0.094 |
| GTTATTAGCG | 0.969 ± 0.05 |
| GTTATTTTCC | 1.01 ± 0.071 |
| GTTCACGGGA | 1 ± 0.058 |
| GTTCAGAGGG | 1.05 ± 0.1 |
| GTTCATACGG | 1.06 ± 0.043 |
| GTTCCAGAGG | 1.03 ± 0.011 |
| GTTCCGCGGT | 1.371 ± 0.0055 |
| GTTCCTTGGA | 1.01 ± 0.045 |
| GTTCGACTCC | 1.15 ± 0.014 |
| GTTCGGAGTG | 0.9877 ± 0.0086 |

| Sequence | switch fluorescence ratio |
| --- | --- |
| GTTCGGCGAA | 1.02 ± 0.024 |
| GTTCGGGCTC | 1.03 ± 0.019 |
| GTTCGGGGAC | 1.026 ± 0.0094 |
| GTTCGGTATG | 0.984 ± 0.033 |
| GTTCGGTGGA | 1 ± 0.041 |
| GTTCGTGTGG | 0.987 ± 0.028 |
| GTTCTAGGGT | 0.9743 ± 0.0042 |
| GTTCTCTGGG | 0.987 ± 0.034 |
| GTTCTGATGT | 1.01 ± 0.029 |
| GTTCTTGTTC | 1.004 ± 0.0069 |
| GTTCTTTATC | 0.994 ± 0.018 |
| GTTCTTTTAT | 1.01 ± 0.024 |
| GTTGAAACAC | 1.02 ± 0.046 |
| GTTGAAGCCC | 1.013 ± 0.0071 |
| GTTGAATTAT | 0.987 ± 0.016 |
| GTTGACCTCG | 0.992 ± 0.03 |
| GTTGAGAGTC | 0.995 ± 0.038 |
| GTTGAGCTGG | 0.971 ± 0.019 |
| GTTGATAGGA | 0.988 ± 0.03 |

Reference: the supplement of paper PMC10126150
